Measured values reported in the Immune Epitope Database (IEDB).

The sequences below were run against HLA-A*02:01 (assay: IEDB peptide-MHC binding, purified MHC/competitive/radioactivity; ≥ and ≤ were set here for values at or beyond the usual limits of such assays). Settings: source organism: Human alphaherpesvirus 1.

With GLLRVGADT as the sequence, how does the IC50 read?
Its IC50 is 23900 nM.

Which IC50 does the source give for GLNGDSFRV here?
The IC50 was 22 nM.

GLVFRFSEV was tested. Which IC50 did it give?
The IC50 was 262 nM.

For GLVLVWYTV, which IC50 is on record?
The IC50 was 66 nM.

GLVSFNFLV was tested. Which IC50 did it give?
The IC50 was 0.5 nM.

Which IC50 does the source give for GLWVCATSL here?
Its IC50 is 36 nM.

Which IC50 does the source give for GLYLCVVYV here?
Its IC50 is 47 nM.

With GMHPRGVHA as the sequence, how does the IC50 read?
The IC50 was no less than 70000 nM.

With GMLICLTVL as the sequence, how does the IC50 read?
The IC50 was 548 nM.

For GMRGLVLAT, which IC50 is on record?
Its IC50 is 3660 nM.

GMVIACLLV was tested. Which IC50 did it give?
Its IC50 is 252 nM.

GPGDPDVYL was tested. Which IC50 did it give?
The IC50 was 30600 nM.

For GQAAALTDL, which IC50 is on record?
The IC50 was 2300 nM.

How did the IC50 turn out when GVVIIAALV was run?
Its IC50 is 1080 nM.

Which IC50 does the source give for HLCRYVALL here?
Its IC50 is 200 nM.

Which IC50 does the source give for HLMRDPALL here?
Its IC50 is 37 nM.

How did the IC50 turn out when HMFCDPMCA was run?
The IC50 was 796 nM.

HMGEVPPRL was tested. Which IC50 did it give?
The IC50 was 1740 nM.

How did the IC50 turn out when IAPNASLGV was run?
The IC50 was 110 nM.

With IILTLIPRL as the sequence, how does the IC50 read?
The IC50 was 127 nM.

For IIPFLLVLV, which IC50 is on record?
The IC50 was 55 nM.

With IIWGELFGV as the sequence, how does the IC50 read?
Its IC50 is 2.3 nM.

How did the IC50 turn out when ILDAARPAV was run?
Its IC50 is 99 nM.

Which IC50 does the source give for ILFLWSFLV here?
The IC50 was 0.36 nM.

For ILFSYDELV, which IC50 is on record?
Its IC50 is 5.6 nM.

With ILIEGIFFA as the sequence, how does the IC50 read?
Its IC50 is 0.17 nM.

With ILLENLMRA as the sequence, how does the IC50 read?
Its IC50 is 19 nM.

Which IC50 does the source give for ILMHATYFL here?
Its IC50 is 1.2 nM.

How did the IC50 turn out when ILMILIEGI was run?
Its IC50 is 12 nM.

ILSPTAPSV was tested. Which IC50 did it give?
The IC50 was 6.1 nM.

ILVVSLLLV was tested. Which IC50 did it give?
Its IC50 is 205 nM.

With ILYSVLQHL as the sequence, how does the IC50 read?
Its IC50 is 55 nM.

How did the IC50 turn out when ITMGMPYAV was run?
The IC50 was 23 nM.

How did the IC50 turn out when IVYLCPVLV was run?
Its IC50 is 137 nM.

Which IC50 does the source give for KIFRCLTVL here?
Its IC50 is 159 nM.

How did the IC50 turn out when KLAVYYYII was run?
Its IC50 is 31 nM.

For KLCSPVFAI, which IC50 is on record?
Its IC50 is 9.3 nM.

How did the IC50 turn out when KLLALLGQV was run?
Its IC50 is 33 nM.

For KLLWAVEPL, which IC50 is on record?
The IC50 was 12 nM.

How did the IC50 turn out when KLMARRAQV was run?
Its IC50 is 795 nM.

Which IC50 does the source give for KMAQCTLAV here?
Its IC50 is 14 nM.

Which IC50 does the source give for KMDIDVEYL here?
Its IC50 is 148 nM.

With KMNQTLLFL as the sequence, how does the IC50 read?
The IC50 was 907 nM.

For KMSYPQFLA, which IC50 is on record?
The IC50 was 1400 nM.

For KQLNYCHLI, which IC50 is on record?
The IC50 was 398 nM.

KSMDDDTYV was tested. Which IC50 did it give?
Its IC50 is 689 nM.

For KTWFLVPLI, which IC50 is on record?
The IC50 was 1.7 nM.

Which IC50 does the source give for LITDDGEVV here?
Its IC50 is 13700 nM.

Which IC50 does the source give for LITNYLPSV here?
Its IC50 is 5.2 nM.

LLAENLPGL was tested. Which IC50 did it give?
Its IC50 is 1.1 nM.

For LLAFDTQPV, which IC50 is on record?
Its IC50 is 9.3 nM.

How did the IC50 turn out when LLAKMLFYL was run?
The IC50 was 5.6 nM.

With LLANNPPPV as the sequence, how does the IC50 read?
The IC50 was 24 nM.

For LLANTVRYL, which IC50 is on record?
The IC50 was 75 nM.

Which IC50 does the source give for LLAPGPLFV here?
The IC50 was 5.6 nM.

LLAQFQHTV was tested. Which IC50 did it give?
Its IC50 is 1.2 nM.

LLAVAVYAV was tested. Which IC50 did it give?
The IC50 was 5.8 nM.

How did the IC50 turn out when LLDDLGFSA was run?
The IC50 was 46 nM.

How did the IC50 turn out when LLDFELACL was run?
The IC50 was 63 nM.

How did the IC50 turn out when LLDTGPFSA was run?
The IC50 was 93 nM.

With LLFNSLYPA as the sequence, how does the IC50 read?
The IC50 was 1.5 nM.

How did the IC50 turn out when LLFVLLVAL was run?
The IC50 was 1130 nM.

LLGGVMAAV was tested. Which IC50 did it give?
Its IC50 is 25 nM.

With LLGQVQTYV as the sequence, how does the IC50 read?
The IC50 was 18 nM.

LLIDTGVYA was tested. Which IC50 did it give?
The IC50 was 94 nM.

With LLLAGTPAV as the sequence, how does the IC50 read?
Its IC50 is 17 nM.

How did the IC50 turn out when LLLALRHPA was run?
The IC50 was 600 nM.

LLLAVAVYA was tested. Which IC50 did it give?
The IC50 was 93 nM.

Which IC50 does the source give for LLLHSLTPL here?
The IC50 was 6.9 nM.

With LLLISMYAL as the sequence, how does the IC50 read?
Its IC50 is 4.7 nM.

LLLMGCDIV was tested. Which IC50 did it give?
Its IC50 is 94 nM.

Which IC50 does the source give for LLLNTTLTV here?
The IC50 was 2.9 nM.

With LLLRQWLHV as the sequence, how does the IC50 read?
The IC50 was 207 nM.

How did the IC50 turn out when LLLVRAYWL was run?
The IC50 was 63 nM.

For LLMACAFWC, which IC50 is on record?
Its IC50 is 974 nM.

LLMGCDIVL was tested. Which IC50 did it give?
Its IC50 is 2.3 nM.

LLMNELLRV was tested. Which IC50 did it give?
The IC50 was 8.4 nM.

LLMVAVIMAI was tested. Which IC50 did it give?
The IC50 was 9 nM.

How did the IC50 turn out when LLNNYDVLV was run?
The IC50 was 10 nM.

For LLPAVQCAV, which IC50 is on record?
Its IC50 is 63 nM.

For LLPEIAPNA, which IC50 is on record?
Its IC50 is 30 nM.

How did the IC50 turn out when LLQRANELV was run?
The IC50 was 635 nM.

For LLSALGLSV, which IC50 is on record?
The IC50 was 8.9 nM.

Which IC50 does the source give for LLSGLPTYA here?
The IC50 was 177 nM.

LLSNTLAEL was tested. Which IC50 did it give?
The IC50 was 5.1 nM.

With LLVEVLREI as the sequence, how does the IC50 read?
The IC50 was 1.6 nM.

How did the IC50 turn out when LLYDLSTTA was run?
The IC50 was 43 nM.

LLYLITNYL was tested. Which IC50 did it give?
Its IC50 is 11 nM.

Which IC50 does the source give for LLYNGAYHL here?
The IC50 was 7.6 nM.

For LMDGHTGMV, which IC50 is on record?
The IC50 was 184 nM.

With LMFDPRALA as the sequence, how does the IC50 read?
The IC50 was 762 nM.

Which IC50 does the source give for LMHATYFLA here?
Its IC50 is 96 nM.

How did the IC50 turn out when LMPSPPMPV was run?
Its IC50 is 124 nM.

For LVLNMVYSI, which IC50 is on record?
The IC50 was 94 nM.

Which IC50 does the source give for LVVTAIVYV here?
Its IC50 is 187 nM.

With LVWYTVFGA as the sequence, how does the IC50 read?
The IC50 was 346 nM.

MILALTVAI was tested. Which IC50 did it give?
Its IC50 is 45 nM.

Which IC50 does the source give for MLCGFSPAL here?
The IC50 was 8.5 nM.

MLDTWNEDL was tested. Which IC50 did it give?
Its IC50 is 102 nM.

How did the IC50 turn out when MLIDLGLDL was run?
The IC50 was 14 nM.

Which IC50 does the source give for MLIKGVDLV here?
The IC50 was 16 nM.

How did the IC50 turn out when MLLAFMTLV was run?
The IC50 was 5.7 nM.

With MLLATREYV as the sequence, how does the IC50 read?
The IC50 was 46 nM.

For MLRDRWSLV, which IC50 is on record?
Its IC50 is 311 nM.

How did the IC50 turn out when MLWTTDKHV was run?
Its IC50 is 1290 nM.

With MLYVIFPGT as the sequence, how does the IC50 read?
The IC50 was 317 nM.

MMLRDRWSL was tested. Which IC50 did it give?
The IC50 was 14 nM.

For MQFVDRFVV, which IC50 is on record?
Its IC50 is 209 nM.

Which IC50 does the source give for MVIACLLVA here?
Its IC50 is 166 nM.

For NIGAYVVLV, which IC50 is on record?
Its IC50 is 282 nM.

NTLMFMVYV was tested. Which IC50 did it give?
Its IC50 is 69 nM.

QLFEAHPNV was tested. Which IC50 did it give?
Its IC50 is 256 nM.

With QLFPGLAAL as the sequence, how does the IC50 read?
Its IC50 is 16 nM.

QLLADFPEA was tested. Which IC50 did it give?
Its IC50 is 133 nM.

For QLLDPPAAV, which IC50 is on record?
The IC50 was 186 nM.

How did the IC50 turn out when QLLSAVDYI was run?
The IC50 was 127 nM.

How did the IC50 turn out when QLQAAIFHA was run?
Its IC50 is 697 nM.

With RIQQYMFFM as the sequence, how does the IC50 read?
The IC50 was 81 nM.

How did the IC50 turn out when RLAEAVVSA was run?
Its IC50 is 75 nM.

Which IC50 does the source give for RLARCLTPA here?
Its IC50 is 23 nM.

RLASLLTYA was tested. Which IC50 did it give?
Its IC50 is 7.9 nM.

Which IC50 does the source give for RLATHLRAV here?
Its IC50 is 159 nM.

RLCLDVPPV was tested. Which IC50 did it give?
The IC50 was 8.5 nM.

How did the IC50 turn out when RLDAEYWSV was run?
The IC50 was 44 nM.

How did the IC50 turn out when RLDALVVAA was run?
Its IC50 is 44 nM.

Which IC50 does the source give for RLDSLDLTL here?
Its IC50 is 101 nM.

Which IC50 does the source give for RLFDFFSRV here?
Its IC50 is 0.2 nM.

RLIDRMLTA was tested. Which IC50 did it give?
Its IC50 is 8.6 nM.

With RLLEVMDSL as the sequence, how does the IC50 read?
Its IC50 is 144 nM.

Which IC50 does the source give for RLLGFADTV here?
Its IC50 is 27 nM.

With RLLQSFLKV as the sequence, how does the IC50 read?
The IC50 was 82 nM.

With RLMNDWAEV as the sequence, how does the IC50 read?
Its IC50 is 24 nM.

For RLNNRPIAV, which IC50 is on record?
Its IC50 is 20 nM.

RLPHICYPV was tested. Which IC50 did it give?
The IC50 was 17 nM.
